Measurements reported in patent US20240166729A1 (RAMOT AT TEL AVIV UNIVERSITY, published 2024).

Tests used:
[1] = molecular target: T1, native EspB of wild-type EPEC; assay: western blot of normalized culture supernatants after SDS-PAGE, mAb-EspB-B7 as primary antibody, anti-human IgG HRP
T1 construct: also called EPEC EspB

C. rodentium EspB = molecular target: T2, C. rodentium EspB (Citrobacter rodentium DBS100); assay: as above
T2 construct: also called EspB of Citrobacter rodentium

Salmonella EspB homolog = molecular target: T3, Salmonella EspB homolog (Salmonella enterica serovar Typhimurium, UniProt D0ZV21 1-409); assay: western blot of bacterial supernatant with mAb-EspB-B7
T3 sequence: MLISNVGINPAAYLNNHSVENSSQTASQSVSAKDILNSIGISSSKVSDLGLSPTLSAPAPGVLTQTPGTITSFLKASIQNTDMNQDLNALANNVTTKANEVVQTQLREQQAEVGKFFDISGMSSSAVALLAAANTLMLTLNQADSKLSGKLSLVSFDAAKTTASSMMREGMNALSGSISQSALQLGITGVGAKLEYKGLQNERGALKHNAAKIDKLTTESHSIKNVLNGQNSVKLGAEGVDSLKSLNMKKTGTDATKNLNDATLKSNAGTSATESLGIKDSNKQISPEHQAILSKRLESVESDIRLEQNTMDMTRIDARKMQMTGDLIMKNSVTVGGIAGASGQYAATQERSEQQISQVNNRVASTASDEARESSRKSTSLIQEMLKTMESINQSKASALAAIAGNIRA

EHEC EspB = molecular target: T4, EHEC EspB; assay: as above
T4 construct: also called EspB of enterohemorrhagic E. coli

[2] = molecular target: T5, His-tagged EspB (EspB-His), recombinant EPEC EspB (enteropathogenic E. coli (EPEC) O127:H6 …, UniProt Q05129 1-321); assay: ELISA (FIG. 4A) and SPR (FIG. 4B): Biacore, EspB amine-coupled on chip, mAb 10-90 nM, steady-state fit
T5 construct: also called recombinant EspB (full-length); full-length EspB
T5 sequence: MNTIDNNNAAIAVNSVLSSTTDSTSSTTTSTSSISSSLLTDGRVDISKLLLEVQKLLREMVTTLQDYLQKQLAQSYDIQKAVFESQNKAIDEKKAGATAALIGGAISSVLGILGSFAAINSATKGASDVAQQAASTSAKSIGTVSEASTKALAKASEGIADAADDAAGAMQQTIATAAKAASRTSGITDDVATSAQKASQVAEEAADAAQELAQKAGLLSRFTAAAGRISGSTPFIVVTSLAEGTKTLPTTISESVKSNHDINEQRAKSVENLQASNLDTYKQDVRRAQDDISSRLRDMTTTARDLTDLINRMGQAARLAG

[3] = molecular target: T5, His-tagged EspB (EspB-His), recombinant …; assay: ELISA on coated EspB, 45.6, 68.5 and 137 mM NaCl (one reading for the bundle)
[4] = molecular target: T5, His-tagged EspB (EspB-His), recombinant …; assay: ELISA on coated EspB, antibody in 0.1 M citric acid buffer, pH 7.4, 7.0, 6.6 and 5.6 (one reading for the bundle of four curves)
[5] = molecular target: T5, His-tagged EspB (EspB-His), recombinant …; assay: indirect ELISA, 5 ug/ml EspB coated, serial dilution of the antibody, goat anti-human H+L HRP
[6] = molecular target: T5, His-tagged EspB (EspB-His), recombinant …; assay: ELISA on coated EspB, 274 mM NaCl
[7] = molecular target: T5, His-tagged EspB (EspB-His), recombinant …; assay: ELISA on coated EspB, 411 mM NaCl
[8] = molecular target: T5, His-tagged EspB (EspB-His), recombinant …; assay: ELISA on coated EspB, antibody diluted in 3% milk in PBS or in goat or horse serum with 1% human serum (one reading for the bundle of three curves)

B1: mAb-EspB-B7 (antibody, V domains shown)
VH: EVQLLESGGGLVQPGGSLRLSCAASGFTFSHYAMNWVRQAPGKGLEWVSAINSNGDSTYYPDTVKDRFTISRDNSKNTLYLQMNSLRAEDTAVYYCARDRRAGYFDYWGQGTLVTVSS
VL: DIVLTQPPSASGTPGQRVTISCSGSRDNIGKNYVSWYQQLPGTAPKLLIYRNNQRPSGVPDRFSGSKSGTSASLAISGLRSEDEADYYCSAWDTSLNAYVFGPGTQLTVL
notes: also called mAb-B7; B7 IgG1
[1]
  binding result: binds
C. rodentium EspB
  binding result: binds
Salmonella EspB homolog
  binding result: no binding
EHEC EspB
  binding result: binds
[2]
  Kd: 17.4 nM
[3]
  EC50 (read off the curve): ~3 nM
[4]
  EC50 (read off the curve): ~20 nM
[5]
  EC50 (read off the curve): ~8 nM
[6]
  EC50 (read off the curve): ~8 nM
[7]
  EC50 (read off the curve): ~10 nM
[8]
  EC50 (read off the curve): ~3 nM
